Data set [1] concerns the molecule itself. As to the kind of experiment: light scattering; 2 uM GalR diluted from a stock in 1 M NaCl into 50 mM TrisCl pH 8 with 78-1000 mM NaCl (or 25-700 mM Na2SO4 with 78 mM NaCl); 365 nm, stirring, room temperature; dimers to aggregates at low ionic strength.
Data set [2] deals with the molecule itself. In words: dynamic light scattering; 6.4 uM GalR^T322R, 20 °C, 250 mM NaCl; monomers to dimer.
Data set [3] deals with the molecule itself. As to the kind of experiment: negative staining transmission electron microscopy; 3.8 uM GalR, 50 mM Tris:Cl pH 8, 250 mM NaCl unless otherwise stated (GalR^N48I: 150 mM NaCl); flash-frozen, stained with 1% phosphotungstic acid; dimers to ordered aggregates.

We go through three proteins from PMC4899725, “The transcriptional regulator GalR self-assembles to form highly regular tubular structures” (Scientific Reports, 2016).

B1: Gal repressor GalR, wild type (GalR^WT), hexahistidine-tagged (natural protein, Escherichia coli, UniProt P03024 1-343, looked up)
chain: MATIKDVARLAGVSVATVSRVINNSPKASEASRLAVHSAMESLSYHPNANARALAQQTTETVGLVVGDVSDPFFGAMVKAVEQVAYHTGNFLLIGNGYHNEQKERQAIEQLIRHRCAALVVHAKMIPDADLASLMKQMPGMVLINRILPGFENRCIALDDRYGAWLATRHLIQQGHTRIGYLCSNHSISDAEDRLQGYYDALAESGIAANDRLVTFGEPDESGGEQAMTELLGRGRNFTAVACYNDSMAAGAMGVLNDNGIDVPGEISLIGFDDVLVSRYVRPRLTTVRYPIVTMATQAAELALALADNRPLPEITNVFSPTLVRRHSVSTPSLEASHHATSD
notes: GalR, the Gal repressor of Escherichia coli; 37 kDa subunit
Consider B1, for which the binding result in data set [1] is recorded as “binds”.

B2: GalR^T322R, hexahistidine-tagged (natural protein, Escherichia coli, UniProt P03024 1-343, looked up)
chain: MATIKDVARLAGVSVATVSRVINNSPKASEASRLAVHSAMESLSYHPNANARALAQQTTETVGLVVGDVSDPFFGAMVKAVEQVAYHTGNFLLIGNGYHNEQKERQAIEQLIRHRCAALVVHAKMIPDADLASLMKQMPGMVLINRILPGFENRCIALDDRYGAWLATRHLIQQGHTRIGYLCSNHSISDAEDRLQGYYDALAESGIAANDRLVTFGEPDESGGEQAMTELLGRGRNFTAVACYNDSMAAGAMGVLNDNGIDVPGEISLIGFDDVLVSRYVRPRLTTVRYPIVTMATQAAELALALADNRPLPEITNVFSPRLVRRHSVSTPSLEASHHATSD
notes: GalR of Escherichia coli with T322R; Tetramer formation is strongly impaired in this mutant (cited); also called non-tetramerizing GalR mutant; source: expressed from vector plasmid pSEM1026 under an L-arabinose inducible promoter, purified
Turning to B2, in data set [2], the binding result is recorded as “binds”.

B3: GalR^N48I, hexahistidine-tagged (natural protein, Escherichia coli, UniProt P03024 1-343, looked up)
chain: MATIKDVARLAGVSVATVSRVINNSPKASEASRLAVHSAMESLSYHPIANARALAQQTTETVGLVVGDVSDPFFGAMVKAVEQVAYHTGNFLLIGNGYHNEQKERQAIEQLIRHRCAALVVHAKMIPDADLASLMKQMPGMVLINRILPGFENRCIALDDRYGAWLATRHLIQQGHTRIGYLCSNHSISDAEDRLQGYYDALAESGIAANDRLVTFGEPDESGGEQAMTELLGRGRNFTAVACYNDSMAAGAMGVLNDNGIDVPGEISLIGFDDVLVSRYVRPRLTTVRYPIVTMATQAAELALALADNRPLPEITNVFSPTLVRRHSVSTPSLEASHHATSD
notes: GalR of Escherichia coli with N48I; source: expressed from vector plasmid pSEM1026 under an L-arabinose inducible promoter, purified
In the case of B3, the binding result in data set [3] is recorded as “binds”.
